{"source": "paper PMC3510509", "about": "“Binding of two DNA molecules by type II topoisomerases for decatenation” (Nucleic Acids Research, 2012)", "binders": {"B1": {"name": "Mycobacterium smegmatis DNA gyrase subunit B (GyrB) (natural protein, M. smegmatis, UniProt A0QNE0 1-675, looked up)", "chain": "MAAQKNNAPKEYGADSITILEGLEAVRKRPGMYIGSTGERGLHHLIWEVVDNAVDEAMAGFATRVDVKIHADGSVEVRDDGRGIPVEMHATGMPTIDVVMTQLHAGGKFDGETYAVSGGLHGVGVSVVNALSTRLEATVLRDGYEWFQYYDRSVPGKLKQGGETKETGTTIRFWADPEIFETTDYNFETVARRLQEMAFLNKGLTIELTDERVTAEEVVDDVVKDTAEAPKTADEKAAEATGPSKVKHRVFHYPGGLVDYVKHINRTKTPIQQSIIDFDGKGPGHEVEIAMQWNAGYSESVHTFANTINTHEGGTHEEGFRAALTSVVNRYAKDKKLLKDKDPNLTGDDIREGLAAVISVKVAEPQFEGQTKTKLGNTEVKSFVQKICNEQLQHWFEANPAEAKTVVNKAVSSAQARIAARKARELVRRKSATDIGGLPGKLADCRSTDPSKSELYVVEGDSAGGSAKSGRDSMFQAILPLRGKIINVEKARIDRVLKNTEVQSIITALGTGIHDEFDISKLRYHKIVLMADADVDGQHISTLLLTLLFRFMKPLVENGHIFLAQPPLYKLKWQRSEPEFAYSDRERDGLLEAGRAAGKKINVDDGIQRYKGLGEMDAKELWETTMDPSVRVLRQVTLDDAAAADELFSILMGEDVEARRSFITRNAKDVRFLDV", "notes": "DNA gyrase subunit B, Mycobacterium smegmatis, wild type; also called MsGyrB; M. smegmatis GyrB"}}, "target": "T1, Mycobacterium smegmatis DNA gyrase subunit A (GyrA) (M. smegmatis, UniProt P48354 1-842)", "T1 construct": "DNA gyrase subunit A, Mycobacterium smegmatis; also called MsGyrA; M. smegmatis GyrA", "experiment": "cross-linking; glutaraldehyde; gyrase subunits mixed 1:1 in supercoiling reaction buffer, on ice 30 min, then cross-linked at 37°C for 30 min; products resolved on SDS-PAGE, silver stained", "details": "both partners purified"}
{"binder": "B1", "values": [{"measurement": "binding result", "result": "binds"}]}
